Series [1] has as its target T1, human serum albumin (HSA) (Homo sapiens, UniProt P02768).
T1 construct: purchased Sigma-Aldrich A3782
In words: CPBA, detecting HSA. Type of series: binding. The note with it: FIG. 4. How it is done:
(§1) The stock solutions of HSA, ovalbumin, and BGG were prepared as 125 μg/ml in HBS buffer (10 mM Hepes-pH 7.0, and 0.15 M NaCl). Aliquots of 30 μl of each protein placed in microplate wells were 2-fold serial diluted in HBS buffer. After an aliquot of 30 μl of freshly prepared reagent-A (6 μM FITC-RD18/FITC-KY15, 100 mM Hepes-pH 7.5, and 2 mM EDTA) was added to each well, the microplate was incubated at 37° C. for 30 minutes. An aliquot of 60 μl of reagent B (0.5 M Hepes-pH 8.0, and 2 mM EDTA) was then added to each well to adjust pH to 8.0 for optimal fluorescence detection. To remove all the free fluorescent peptides, MD-Charcoal suspension (200 μl per well) was added and incubated at room temperature for 5 minutes. […] Background level of fluorescence intensities was measured by replacing protein samples with HBS buffer. The binding capacities of antigens for the fluorescent peptide probes were expressed as net fluorescence intensity per well. All experiments were performed at least in triplicates for each datum point and the data were presented as means±SD.

Series [2] can be described thus: CPBA, control non-immune rabbit serum. Type of series: binding. Particulars: FIG. 2B. How it is done:
(§2) Rabbit sera (30 μl/well) in microplate were 2-fold serially diluted in PBS buffer (137 mM NaCl, 2.7 mM KCl, 10 mM Na2HPO4, 2 mM KH2PO4, pH 7.4). After an aliquot of 30 μl of freshly prepared reagent-A (6 μM FITC-KY15, 100 mM Hepes-pH 7.5, and 2 mM EDTA) was added to each well, the microplate was incubated at 37° C. for 50 minutes. An aliquot of 60 μl of reagent B (0.5 M Hepes-pH 8.0, and 2 mM EDTA) was then added to each well to adjust pH to 8.0 for optimal fluorescence detection. To remove all the free fluorescent peptides, MD-Charcoal suspension (200 μl per well) was added, and the mixture was incubated at room temperature for 5 minutes. […] The binding capacity of antiserum for the fluorescent peptide probe was expressed as fluorescence intensity per well. All experiments were performed in triplicates for each datum point and the data were presented as means±SD.

Series [3] is described as follows: Capturing capacity and rate of MD-Charcoal for FITC-labeled molecules. Particulars: for Remaining fluorescence intensities: 3 μM in 60 μl, Ex485/Em535, Gain 35, means±SD (n=3).
Experimental: Aliquots of FITC-labeled molecules (3 μM in 60 μl) mixed with equal volume of reagent B (2 mM EDTA, 0.5 M Hepes-pH 8.0) were treated with MD-Charcoal (200 μl/well) at room temperature for 1, 5, or 10 minutes.
Data were analyzed by one-way ANOVA and Tukey-HSD multiple range test, and presented as means±SD (n=3). Different successive superscript represents significant difference at p<0.05. The background value from empty well served as blank.
The test system of the next series is anti-FF15 antiserum. In words: CPBA, control serum anti-FF15 antiserum. Particulars: FIG. 2B. The series is classed as binding, rabbit. How it is done:
as §2

The next series has as its system anti-KY15 antibody. Put plainly: Charcoal-sorbent peptide binding assay (CPBA), detecting anti-KY15 antibody. Particulars: FIG. 2B, anti-KY15 rabbit antiserum. How it is done:
as §2

Series [4] concerns bovine gamma globulin (BGG). In words: CPBA, control protein bovine gamma globulin. The series is classed as binding. The note with it: FIG. 4. How it is done: as §1
A further series concerns the target T2, ovalbumin (Gallus gallus, UniProt P01012).
T2 construct: ovalbumin (#A5503; from chicken egg white; 99% in purity); purchased Sigma-Aldrich A5503; host or cells: chicken egg white
T2 sequence (P01012 1-386): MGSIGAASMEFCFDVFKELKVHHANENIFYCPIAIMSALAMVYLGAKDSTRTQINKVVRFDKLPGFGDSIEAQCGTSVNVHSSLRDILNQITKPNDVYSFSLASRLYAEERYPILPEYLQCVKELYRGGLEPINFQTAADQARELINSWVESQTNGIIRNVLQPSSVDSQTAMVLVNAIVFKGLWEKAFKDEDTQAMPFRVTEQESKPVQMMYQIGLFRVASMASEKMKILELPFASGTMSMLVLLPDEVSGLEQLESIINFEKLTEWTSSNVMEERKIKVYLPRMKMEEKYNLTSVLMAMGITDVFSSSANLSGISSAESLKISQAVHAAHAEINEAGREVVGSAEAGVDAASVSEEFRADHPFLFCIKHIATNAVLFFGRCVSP
In words: CPBA, control protein ovalbumin. The series is classed as binding, chicken. Particulars: FIG. 4. How it is done:
as §1

Entries after “also recorded” stand apart in the source; their conditions may differ. Primed or numbered codes have the meaning given here. Ends that are not written are not given here. * marks the point of attachment. FITC = O=C1OC2(c3ccc(O)cc3Oc3cc(O)ccc32)c2ccc(NC(=S)*)cc21; FITC′ = fluorescein isothiocyanate label

Consider “FITC-KY15: N-terminal FITC-labeled peptide KY15, amino acid sequence KSVGRDEREDITYTY; peptide probe for anti-KY15 antibody ({FITC}-KSVGRDEREDITYTY)”, for which the “Binding of peptide probe with HSA” value in series [1] is listed as “did not have affinity”. Further, in series [2], the “Affinity of non-immune rabbit serum for the peptide probe” value is “did not show affinity”. The “Remaining fluorescence intensities (% of No Treatment)” value is listed as “(0.6%)” in series [3] (MD-Charcoal treatment 1 min), “(0.5%)” in series [3] (MD-Charcoal treatment 5 min) and “(0.4%)” in series [3] (MD-Charcoal treatment 10 min). For the same substance, the figures for the Remaining fluorescence intensities in series [3] (MD-Charcoal treatment 1 min), in series [3] (MD-Charcoal treatment 5 min) and in series [3] (MD-Charcoal treatment 10 min) were 1,320 ± 410^2b, 1,037 ± 33^2b and 943 ± 29^2b, respectively. For the same substance, the “Affinity of anti-FF15 antiserum for the peptide probe” value in the series with anti-FF15 antiserum was “did not show affinity”. Besides, the “Binding of peptide probe with anti-KY15 antibody” value with anti-KY15 antibody is “specific binding; also recorded: can be detected”.

On to “FITC-RD18: N-terminal FITC-labeled peptide RD18, amino acid sequence RLIEDICLPRWGCLWEDD; albumin-specific peptide probe ({FITC′}-RLIEDICLPRWGCLWEDD; cysteine pairing not given here)”, for which, in series [1], the “Binding of peptide probe with HSA” value is “linearly dose-dependent”; the “Specificity for albumin compared to control proteins, ovalbumin and bovine gamma globulin” value is “highly specific”. Also, in series [4], the “Interaction of bovine gamma globulin with peptide probe” value is “did not interact”. Besides, in the series with ovalbumin, the “Interaction of ovalbumin with peptide probe” value is reported as “did not interact”.

These data come from US8133683B2, “Methods for detecting biomolecules in a sample” (Taipei Medical University, priority 2009, dated 2012).
